Measurements from publication PMC12859064.

Target: Flag-Axin1 (mouse)
Assay: SPR; BIAcore 8K, CM5 chip; Flag-Axin1 immobilised by amine coupling (20 μg/mL, sodium acetate pH 4.5); analytes 25-400 nM, 30 μL/min, 120 s association, 300 s dissociation; step of the Axin1 self-association not told

**Q.** For Flag-Axin1 (natural protein), which Kd is on record?
**A.** 147 nM

B1: Flag-TRIM15 (natural protein)
chain: MPATPSLKVVHELPACTLCAGPLEDAVTIPCGHTFCRLCLPALSQMGAQSSGKILLCPLCQEEEQAETPMAPVPLGPLGETYCEEHGEKIYFFCENDAEFLCVFCREGPTHQAHTVGFLDEAIQPYRDRLRSRLEALSTERDEIEDVKCQEDQKLQVLLTQIESKKHQVETAFERLQQELEQQRCLLLARLRELEQQIWKERDEYITKVSEEVTRLGAQVKELEEKCQQPASELLQDVRVNQSRCEMKTFVSPEAISPDLVKKIRDFHRKILTLPEMMRMFSENLAHHLEIDSGVITLDPQTASRSLVLSEDRKSVRYTRQKKSLPDSPLRFDGLPAVLGFPGFSSGRHRWQVDLQLGDGGGCTVGVAGEGVRRKGEMGLSAEDGVWAVIISHQQCWASTSPGTDLPLSEIPRGVRVALDYEAGQVTLHNAQTQEPIFTFTASFSGKVFPFFAVWKKGSCLTLKG
**Q.** With B1 as the molecule, how does the Kd read?
**A.** 37.8 nM
